{"source": "the supplement of paper PMC6755084", "parents": {"B1": {"name": "F1*; the commonest letter at each place (parent)", "chain": "GAGACCGCAACTGAAAAGTTGTTATCACTTGTCGTAAGACACTTTGGATGGGTTGAAGTTCTGCACGTAGAAGCAAAAGGC"}}}
{"variants_of": "B1", "experiment": "fraction ligated after 30 min (ligated reads / total reads); higher = more ligase activity", "conditions": "with F1*sub RNA substrate (template-directed ligation), 42 °C", "how_it_was_run": "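Ligase ribozyme variants were made from oligo-pool templates by PCR amplification, T7 transcription and gel purification. After gel separation, ligated and unligated bands were reverse transcribed with barcoded primers and sequenced on a MiSeq, with core bases filtered at quality ≥20. The fraction ligated for each variant was the number of ligated reads divided by total reads.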"}
{"variant": "T44A T49G", "fraction ligated": 0.785}
{"variant": "T44A T49C", "fraction ligated": 0.737}
{"variant": "T44A T49A", "fraction ligated": 0.779}
{"variant": "T45A", "fraction ligated": 0.787}
{"variant": "T45C", "fraction ligated": 0.74}
{"variant": "T45G", "fraction ligated": 0.385}
{"variant": "G47A A48C", "fraction ligated": 0.723}
{"variant": "G47A A48T", "fraction ligated": 0.803}
{"variant": "G47A A48G", "fraction ligated": 0.61}
{"variant": "G47A G55T", "fraction ligated": 0.221}
{"variant": "G47A G55C", "fraction ligated": 0.422}
{"variant": "G47A G55A", "fraction ligated": 0.775}
{"variant": "T45C G47T", "fraction ligated": 0.379}
{"variant": "T45C G47C", "fraction ligated": 0.31}
{"variant": "T45C G47A", "fraction ligated": 0.366}
{"variant": "T44G G50C", "fraction ligated": 0.0717}
{"variant": "T44G G50A", "fraction ligated": 0.132}
{"variant": "T44G G50T", "fraction ligated": 0.344}
{"variant": "T45G A57T", "fraction ligated": 0.8}
{"variant": "T45G A57G", "fraction ligated": 0.769}
{"variant": "T45G A57C", "fraction ligated": 0.791}
{"variant": "G47C G55C", "fraction ligated": 0.0788}
{"variant": "G47C G55T", "fraction ligated": 0.0996}
{"variant": "G47C G55A", "fraction ligated": 0.11}
{"variant": "G47T A48C", "fraction ligated": 0.0847}
{"variant": "G47T A48T", "fraction ligated": 0.283}
{"variant": "G47T A48G", "fraction ligated": 0.183}
{"variant": "G46T T49G", "fraction ligated": 0.277}
{"variant": "G46T T49A", "fraction ligated": 0.192}
{"variant": "G46T T49C", "fraction ligated": 0.148}
{"variant": "G46C A48C", "fraction ligated": 0.621}
{"variant": "G46C A48T", "fraction ligated": 0.0498}
{"variant": "G46C A48G", "fraction ligated": 0.191}
{"variant": "T45A A48T", "fraction ligated": 0.0749}
{"variant": "T45A A48G", "fraction ligated": 0.261}
{"variant": "T45A A48C", "fraction ligated": 0.23}
{"variant": "G46A T49C", "fraction ligated": 0.38}
{"variant": "G46A T49A", "fraction ligated": 0.501}
{"variant": "G46A T49G", "fraction ligated": 0.627}
{"variant": "G47C A56C", "fraction ligated": 0.0635}
{"variant": "G47C A56G", "fraction ligated": 0.0569}
{"variant": "G47C A56T", "fraction ligated": 0.0769}
{"variant": "G47T G55A", "fraction ligated": 0.0777}
{"variant": "G47T G55T", "fraction ligated": 0.0451}
{"variant": "G47T G55C", "fraction ligated": 0.0359}
{"variant": "G46C G47T", "fraction ligated": 0.0897}
{"variant": "G46C G47A", "fraction ligated": 0.798}
{"variant": "G46C G47C", "fraction ligated": 0.0992}
{"variant": "T45G A48G", "fraction ligated": 0.0747}
{"variant": "T45G A48C", "fraction ligated": 0.122}
{"variant": "T45G A48T", "fraction ligated": 0.187}
{"variant": "G46C T49G", "fraction ligated": 0.407}
{"variant": "G46C T49A", "fraction ligated": 0.344}
{"variant": "G46C T49C", "fraction ligated": 0.0853}
{"variant": "T43G G46T", "fraction ligated": 0.787}
{"variant": "T43G G46A", "fraction ligated": 0.808}
{"variant": "T43G G46C", "fraction ligated": 0.783}
{"variant": "T43C T49C", "fraction ligated": 0.427}
{"variant": "T43C T49A", "fraction ligated": 0.638}
{"variant": "T43C T49G", "fraction ligated": 0.665}
{"variant": "T45G A56C", "fraction ligated": 0.187}
{"variant": "T45G A56T", "fraction ligated": 0.79}
{"variant": "T45G A56G", "fraction ligated": 0.775}
{"variant": "T43G A48C", "fraction ligated": 0.625}
{"variant": "T43G A48G", "fraction ligated": 0.78}
{"variant": "T43G A48T", "fraction ligated": 0.668}
{"variant": "T44C T45C", "fraction ligated": 0.747}
{"variant": "T44C T45G", "fraction ligated": 0.191}
{"variant": "T44C T45A", "fraction ligated": 0.768}
{"variant": "T44C G50A", "fraction ligated": 0.406}
{"variant": "T44C G50C", "fraction ligated": 0.224}
{"variant": "T44C G50T", "fraction ligated": 0.691}
{"variant": "T44C A57G", "fraction ligated": 0.802}
{"variant": "T44C A57C", "fraction ligated": 0.744}
{"variant": "T44C A57T", "fraction ligated": 0.806}
{"variant": "G47T T49A", "fraction ligated": 0.0948}
{"variant": "G47T T49G", "fraction ligated": 0.261}
{"variant": "G47T T49C", "fraction ligated": 0.0788}
{"variant": "T45A G47T", "fraction ligated": 0.205}
{"variant": "T45A G47C", "fraction ligated": 0.217}
{"variant": "T45A G47A", "fraction ligated": 0.478}
{"variant": "T44G T45A", "fraction ligated": 0.769}
{"variant": "T44G T45C", "fraction ligated": 0.797}
{"variant": "T44G T45G", "fraction ligated": 0.35}
{"variant": "T45A A56G", "fraction ligated": 0.768}
{"variant": "T45A A56C", "fraction ligated": 0.782}
{"variant": "T45A A56T", "fraction ligated": 0.793}
{"variant": "G46A G47A", "fraction ligated": 0.804}
{"variant": "G46A G47T", "fraction ligated": 0.115}
{"variant": "G46A G47C", "fraction ligated": 0.146}
{"variant": "T45A A57T", "fraction ligated": 0.794}
{"variant": "T45A A57C", "fraction ligated": 0.773}
{"variant": "T45A A57G", "fraction ligated": 0.752}
{"variant": "A48C G55A", "fraction ligated": 0.743}
{"variant": "A48C G55C", "fraction ligated": 0.16}
{"variant": "A48C G55T", "fraction ligated": 0.5}
{"variant": "T43G G50C", "fraction ligated": 0.273}
{"variant": "T43G G50T", "fraction ligated": 0.561}
{"variant": "T43G G50A", "fraction ligated": 0.311}
{"variant": "T45G G50A", "fraction ligated": 0.0135}
{"variant": "T45G G50T", "fraction ligated": 0.0316}
{"variant": "T45G G50C", "fraction ligated": 0.0186}
{"variant": "T45C G55A", "fraction ligated": 0.521}
{"variant": "T45C G55T", "fraction ligated": 0.134}
{"variant": "T45C G55C", "fraction ligated": 0.0438}
{"variant": "G47C A48T", "fraction ligated": 0.257}
{"variant": "G47C A48C", "fraction ligated": 0.168}
{"variant": "G47C A48G", "fraction ligated": 0.122}
{"variant": "G47C G50T", "fraction ligated": 0.202}
{"variant": "G47C G50A", "fraction ligated": 0.059}
{"variant": "G47C G50C", "fraction ligated": 0.0335}
{"variant": "A48C A56C", "fraction ligated": 0.185}
{"variant": "A48C A56T", "fraction ligated": 0.289}
{"variant": "A48C A56G", "fraction ligated": 0.283}
{"variant": "A48C A57G", "fraction ligated": 0.762}
{"variant": "A48C A57C", "fraction ligated": 0.714}
{"variant": "A48C A57T", "fraction ligated": 0.719}
{"variant": "T45C G46T", "fraction ligated": 0.263}
{"variant": "T45C G46A", "fraction ligated": 0.127}
{"variant": "T45C G46C", "fraction ligated": 0.268}
{"variant": "G47A", "fraction ligated": 0.788}
{"variant": "G47T", "fraction ligated": 0.37}
{"variant": "G47C", "fraction ligated": 0.236}
{"variant": "T44A T45C", "fraction ligated": 0.8}
{"variant": "T44A T45G", "fraction ligated": 0.187}
{"variant": "T44A T45A", "fraction ligated": 0.762}
{"variant": "T43C T45C", "fraction ligated": 0.584}
{"variant": "T43C T45G", "fraction ligated": 0.257}
{"variant": "G47C A57T", "fraction ligated": 0.0788}
{"variant": "G47C A57C", "fraction ligated": 0.0685}
{"variant": "G47C A57G", "fraction ligated": 0.0599}
{"variant": "T44G G47T", "fraction ligated": 0.0521}
{"variant": "T44G G47A", "fraction ligated": 0.305}
{"variant": "T44G G47C", "fraction ligated": 0.0306}
{"variant": "G46A A48C", "fraction ligated": 0.675}
{"variant": "G46A A48T", "fraction ligated": 0.0714}
{"variant": "G46A A48G", "fraction ligated": 0.609}
{"variant": "G47A A56T", "fraction ligated": 0.181}
{"variant": "G47A A56G", "fraction ligated": 0.098}
{"variant": "G47A A56C", "fraction ligated": 0.125}
{"variant": "G46T G55C", "fraction ligated": 0.111}
{"variant": "G46T G55A", "fraction ligated": 0.726}
{"variant": "G46T G55T", "fraction ligated": 0.482}
{"variant": "A48C", "fraction ligated": 0.752}
{"variant": "T43G G47C", "fraction ligated": 0.447}
{"variant": "T43G G47T", "fraction ligated": 0.52}
{"variant": "T43G G47A", "fraction ligated": 0.802}
{"variant": "G46T A57G", "fraction ligated": 0.795}
{"variant": "G46T A57T", "fraction ligated": 0.754}
{"variant": "G46T A57C", "fraction ligated": 0.726}
{"variant": "G46A A56T", "fraction ligated": 0.645}
{"variant": "G46A A56C", "fraction ligated": 0.483}
{"variant": "G46A A56G", "fraction ligated": 0.487}
{"variant": "T45C G50T", "fraction ligated": 0.0706}
{"variant": "T45C G50C", "fraction ligated": 0.0165}
{"variant": "T45C G50A", "fraction ligated": 0.0234}
{"variant": "T45C A48T", "fraction ligated": 0.00623}
{"variant": "T45C A48C", "fraction ligated": 0.112}
{"variant": "T45C A48G", "fraction ligated": 0.0929}
{"variant": "T44G T49A", "fraction ligated": 0.584}
{"variant": "T44G T49C", "fraction ligated": 0.183}
{"variant": "T44G T49G", "fraction ligated": 0.714}
{"variant": "T44A", "fraction ligated": 0.849}
{"variant": "T44C", "fraction ligated": 0.837}
{"variant": "T44G", "fraction ligated": 0.844}
{"variant": "T45G G55C", "fraction ligated": 0.0194}
{"variant": "T45G G55T", "fraction ligated": 0.0383}
